For four molecules, binding result and Kd results are on record in patent US20160297892A1 (Novo Nordisk, published 2016).

First the molecules themselves.
T1: EGF1-4 domains of human Protein S with C-terminal HPC4 tag (human, UniProt P07225 114-286, partial hydroxylation of Asn or Asp in the EGF domains (detected by MS))
T1 construct: also called hEGF1-4; human Protein S EGF1-4
T1 sequence: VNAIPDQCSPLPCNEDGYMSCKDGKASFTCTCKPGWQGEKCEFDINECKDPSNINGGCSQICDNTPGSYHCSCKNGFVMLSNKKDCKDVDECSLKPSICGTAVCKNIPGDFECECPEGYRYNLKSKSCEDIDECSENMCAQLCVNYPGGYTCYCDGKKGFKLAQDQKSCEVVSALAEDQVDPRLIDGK

T2: EGF domain 1 and 2 of recombinant human Protein S (human, UniProt P07225 114-200, limits assumed)
T2 construct: domain: EGF domain 1 and 2; also called hEGF1-2
T2 sequence (looked up): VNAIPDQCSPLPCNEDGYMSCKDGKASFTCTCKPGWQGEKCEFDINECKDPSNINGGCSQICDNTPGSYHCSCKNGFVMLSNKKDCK

T3: Gla-domain deleted recombinant human Protein S (human, UniProt P07225 114-676)
T3 construct: also called hPS-dGla; desGla human Protein S
T3 sequence: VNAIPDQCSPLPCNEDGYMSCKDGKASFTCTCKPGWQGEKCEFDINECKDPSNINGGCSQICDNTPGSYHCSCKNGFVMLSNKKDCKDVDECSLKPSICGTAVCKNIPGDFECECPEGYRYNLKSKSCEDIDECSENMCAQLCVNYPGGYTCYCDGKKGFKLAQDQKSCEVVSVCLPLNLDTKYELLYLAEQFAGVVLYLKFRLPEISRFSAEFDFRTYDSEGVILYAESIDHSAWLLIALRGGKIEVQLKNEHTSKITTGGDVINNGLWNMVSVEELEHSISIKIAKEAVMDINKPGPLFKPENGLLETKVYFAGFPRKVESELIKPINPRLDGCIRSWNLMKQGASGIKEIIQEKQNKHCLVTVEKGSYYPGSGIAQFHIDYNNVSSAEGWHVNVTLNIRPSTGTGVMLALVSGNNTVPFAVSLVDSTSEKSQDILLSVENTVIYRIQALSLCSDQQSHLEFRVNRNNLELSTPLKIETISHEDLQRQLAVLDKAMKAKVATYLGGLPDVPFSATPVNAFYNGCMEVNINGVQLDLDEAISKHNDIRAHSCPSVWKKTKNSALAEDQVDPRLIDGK

T4: C4b-Binding Protein (UniProt P04003 49-597; P20851 18-252)
T4 construct: Bought protein; also called C4BP; C4b-BP
T4 sequence (looked up) 1: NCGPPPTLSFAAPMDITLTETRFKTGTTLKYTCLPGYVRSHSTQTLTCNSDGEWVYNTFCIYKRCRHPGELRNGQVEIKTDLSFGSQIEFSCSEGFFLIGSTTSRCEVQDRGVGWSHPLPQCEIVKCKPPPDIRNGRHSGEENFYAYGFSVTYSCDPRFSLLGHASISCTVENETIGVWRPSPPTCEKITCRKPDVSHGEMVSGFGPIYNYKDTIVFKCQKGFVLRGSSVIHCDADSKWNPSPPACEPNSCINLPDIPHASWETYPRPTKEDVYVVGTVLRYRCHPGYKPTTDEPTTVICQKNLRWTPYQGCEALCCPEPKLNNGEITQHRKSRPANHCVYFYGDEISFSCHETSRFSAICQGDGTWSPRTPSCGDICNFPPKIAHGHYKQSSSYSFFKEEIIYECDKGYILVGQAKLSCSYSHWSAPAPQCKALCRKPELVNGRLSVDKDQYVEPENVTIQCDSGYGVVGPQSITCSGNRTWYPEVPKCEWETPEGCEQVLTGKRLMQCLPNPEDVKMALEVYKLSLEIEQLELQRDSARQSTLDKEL
T4 sequence (looked up) 2: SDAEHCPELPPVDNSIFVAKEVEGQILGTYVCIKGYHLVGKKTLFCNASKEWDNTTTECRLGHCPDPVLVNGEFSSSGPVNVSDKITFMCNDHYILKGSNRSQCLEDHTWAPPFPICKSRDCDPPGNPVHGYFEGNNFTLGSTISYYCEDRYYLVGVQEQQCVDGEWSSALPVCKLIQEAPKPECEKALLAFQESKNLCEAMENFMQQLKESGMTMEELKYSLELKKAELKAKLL

B1: M-hProtS-6F230A10 monoclonal antibody (antibody, mouse IgG1, V domains shown)
VH: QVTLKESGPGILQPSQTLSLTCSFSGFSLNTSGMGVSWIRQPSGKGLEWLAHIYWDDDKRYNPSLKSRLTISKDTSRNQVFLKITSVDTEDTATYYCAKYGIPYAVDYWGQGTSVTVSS
VL: QIVLTQSPAIMSASPGEKVTMTCSASSSVSYMYWYQQKPGSSPRLLIYDTSNLASGVPVRFSGSGSGTSYSLTISRMEAEDAATYYCQQWSSYPLTFGAGTKLELKR
B2: human Protein S (plasma derived) (other)
chain: ANSLLEETKQGNLERECIEELCNKEEAREVFENDPETDYFYPKYLVCLRSFQTGLFTAARQSTNAYPDLRSCVNAIPDQCSPLPCNEDGYMSCKDGKASFTCTCKPGWQGEKCEFDINECKDPSNINGGCSQICDNTPGSYHCSCKNGFVMLSNKKDCKDVDECSLKPSICGTAVCKNIPGDFECECPEGYRYNLKSKSCEDIDECSENMCAQLCVNYPGGYTCYCDGKKGFKLAQDQKSCEVVSVCLPLNLDTKYELLYLAEQFAGVVLYLKFRLPEISRFSAEFDFRTYDSEGVILYAESIDHSAWLLIALRGGKIEVQLKNEHTSKITTGGDVINNGLWNMVSVEELEHSISIKIAKEAVMDINKPGPLFKPENGLLETKVYFAGFPRKVESELIKPINPRLDGCIRSWNLMKQGASGIKEIIQEKQNKHCLVTVEKGSYYPGSGIAQFHIDYNNVSSAEGWHVNVTLNIRPSTGTGVMLALVSGNNTVPFAVSLVDSTSEKSQDILLSVENTVIYRIQALSLCSDQQSHLEFRVNRNNLELSTPLKIETISHEDLQRQLAVLDKAMKAKVATYLGGLPDVPFSATPVNAFYNGCMEVNINGVQLDLDEAISKHNDIRAHSCPSVWKKTKNS
notes: Bought plasma-derived human Protein S (Haematologic Technologies or Enzyme Research Laboratories); also called Plasma PS; free Protein S
B3: 0322-0000-1139 (Fab, V domains shown)
VH: QVQLQQPGAELVRPGASVKLSCKASGYTFTSYWINWVKQRPEQGLEWIGRIDPYDSETHYNQKFKDKAILTVDKSSSTAYMQLSSLTSEDSAVYYCARWGGSGYAMDYWGQGTSVTVSS
VL: QIVLSQSPAILSASPGEKVTMTCRASSSVSYMYWYQQKPGSSPKPWIYATSNLASGVPARFSGSGSGTSYSLTISRVEAEDAATYYCQQWSSIPPTFGGGTKLEIKR
notes: also called Fab 1139
B4: 0322-0000-1069 (murine-human IgG4 chimer) (antibody, V domains shown)
VH: B3 VH
VL: B3 VL
notes: Mouse variable domains on human IgG4(S241P) / human kappa constant regions

The target of experiment [1] is B2. In words: ELISA, recombinant antibody. Background: ELISA stands for enzyme-linked immunosorbent assay.
Experiment [2] concerns the target T1, EGF1-4 domains of human Protein S with …. In words: ELISA, recombinant antibody.
Experiment [3] has as its target T2, EGF domain 1 and 2 of recombinant human …. The experiment can be described thus: ELISA, recombinant antibody.
For experiment [4], the target named is T3, Gla-domain deleted recombinant human …. In words: ELISA, recombinant antibody.
Experiment [5] deals with T4, C4b-Binding Protein. In words: SPR (Biacore T200), C4BP captured by immobilized polyclonal anti-C4BP alpha chain antibody. A general note: In SPR one partner is held on a chip, and binding of the other changes the refractive index at the surface.
Method: (§1) In brief, a polyclonal anti-C4BP antibody targeting the alpha chain (ab83755 from abcam) was immobilized on a CM5 Biacore sensor chip by standard amine coupling chemistry. […] The experiment was conducted in 10 mM Hepes, pH 7.4; 150 mM NaCl; 10 M CaCl₂ supplemented with 0.005% Tween20 and the chip was regenerated with glycine-HCl pH 1.7.
Experiment [6] has as its target B2. The experiment can be described thus: SPR (Biacore T200), Fab on Protein S captured on C4BP.
Method: as §1
The target of experiment [7] is B2. The experiment can be described thus: SPR; protein S binding to the full length antibody.

Take B1: the binding result is on record as “binds” in experiment [1], “binds” in experiment [2], “no binding” in experiment [3] and “binds” in experiment [4].
With B2, the Kd (usually the constant that tells how readily two partners part at equilibrium) in experiment [5] is 2 nM.
As to B3, in experiment [6], binding was characterised by a dissociation constant (Kd) of 10 nM.
B4 gave a dissociation constant (Kd) in experiment [7] of 20 nM.
